T1: human B lymphocyte-restricted differentiation antigen Bp35 (CD20) (human, UniProt P11836 1-297)
T1 construct: whole, on cells; Presented on SB cells, other CD20 positive B cell lines or acetone-fixed human tissues; also called CD20 antigen; CD20 surface antigen
T1 sequence (looked up): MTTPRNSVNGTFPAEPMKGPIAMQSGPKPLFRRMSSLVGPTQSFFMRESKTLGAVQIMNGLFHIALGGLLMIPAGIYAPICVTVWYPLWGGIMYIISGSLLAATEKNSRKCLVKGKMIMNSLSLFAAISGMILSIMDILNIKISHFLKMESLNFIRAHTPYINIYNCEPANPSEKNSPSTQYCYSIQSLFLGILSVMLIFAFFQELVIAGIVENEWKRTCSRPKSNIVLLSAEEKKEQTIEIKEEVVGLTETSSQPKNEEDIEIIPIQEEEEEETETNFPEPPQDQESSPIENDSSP


Experiments:
[1] = molecular target: human B lymphocyte-restricted differentiation antigen Bp35 (CD20) (human) (UniProt P11836); assay: radioimmunoassay: hybridoma medium against 10 ng I-125 labeled anti-CD20 Bl on 100,000 SB cells
[2] = molecular target: human B lymphocyte-restricted differentiation antigen Bp35 (CD20) (human) (UniProt P11836); assay: direct binding of I-125 radiolabeled antibody to CD20 positive B cells, Scatchard plot; printed as apparent affinity constant (Kap)
[3] = molecular target: T1, human B lymphocyte-restricted …; assay: as above

% inhibition of I-125 labeled anti-CD20 Bl binding [1] [%] | Kd [2] [nM] | Kd [3] [nM] | Molecule
50 | 3.5 |  | murine anti-CD20 monoclonal antibody 2B8
 |  | 5.2 | chimeric anti-CD20 antibody produced by the CHO transfectoma (antibody, V domains shown, domain: heavy chain gamma 1 constant region (Kabat numbering amino acids 114-478); also called C2B8; CHO produced chimeric anti-CD20; not shown: human immunoglobulin light chain kappa constant region, Kabat numbering amino acids 108-214, allotype Km 3) VH: QVQLQQPGAELVKPGASVKMSCKASGYTFTSYNMHWVKQTPGRGLEWIGAIYPGNGDTSYNQKFKGKATLTADKSSSTAYMQLSSLTSEDSAVYYCARSTYYGGDWYFNVWGAGTTVTVSA VL: QIVLSQSPAILSASPGEKVTMTCRASSSVSYIHWFQQKPGSSPKPWIYATSNLASGVPVRFSGSGSGTSYSLTISRVEAEDAATYYCQQWTSNPPTFGGGTKLEIK
 |  | 7.4 | chimeric anti-CD20 antibody produced by the SP2/0 transfectoma (antibody, V domains shown, domain: heavy chain gamma 1 constant region (Kabat numbering amino acids 114-478); Same construct as m2, but produced in SP2/0 mouse myeloma cells; also called SP2/0 produced antibody; not shown: human immunoglobulin light chain kappa constant region, Kabat numbering amino acids 108-214, allotype Km 3) VH: QVQLQQPGAELVKPGASVKMSCKASGYTFTSYNMHWVKQTPGRGLEWIGAIYPGNGDTSYNQKFKGKATLTADKSSSTAYMQLSSLTSEDSAVYYCARSTYYGGDWYFNVWGAGTTVTVSA VL: QIVLSQSPAILSASPGEKVTMTCRASSSVSYIHWFQQKPGSSPKPWIYATSNLASGVPVRFSGSGSGTSYSLTISRVEAEDAATYYCQQWTSNPPTFGGGTKLEIK

— US20030147885A1 (IDEC PHARMACEUTICALS, published 2003)
